Data from patent publication US20210355166A1, “[…] METHODS OF USE THEREOF” (priority 2018, published 2021).
“Also recorded” adds a separate entry of the source. Non-standard residues stand in square brackets, D forms with d. No end group written: not given here. *: point of attachment. β‑Lac = OC[C@H]1O[C@@H](O[C@H]2[C@H](O)[C@@H](O)[C@H](*)O[C@@H]2CO)[C@H](O)[C@@H](O)[C@H]1O; Dmt = Cc1cc(O)cc(C)c1C[C@H](N)C(=O)O

Columns and labels:
[1] = biological target: T1, MOPr (Mus musculus, UniProt P42866); assay: MOPr internalisation (endocytosis assay) in AtT20 cells; assay type: cell-based; design: expressed in transfected cells; conditions: 30 min agonist; met-enkephalin defined as 100%
Description: Imaging parameters including laser intensity, photomultiplier tube (PMT) voltage and offset remained constant for each experiment. Mean fluorescence intensity was measured using ImageJ software to calculate mean gray value of an area defined […] a single cell. Each experiment was normalized to the mean of untreated cells as 0% and the mean of cells treated with saturating concentrations of Met-enk (30 μM) as 100%.
MOPr internalisation was assessed immunocytochemically after 30 minutes of agonist treatment (FIGS. 8, 9). […] Endocytosis assay: Receptor internalization was quantified using a ratiometric staining of membrane and internalized receptors. […] Cells were then incubated for an additional 30 min with indicated agonist at 37° C. To unbind the M1 anti-FLAG antibody from the surface receptors, cells were quickly washed three times with ice-cold PBS lacking Mg^2+ and Ca^2+ and supplemented with 0.04% EDTA (pH 7.4).

[2] = biological target: T2, mouse MOPr (mMOPr) (Mus musculus, UniProt P42866); assay type: cell-based
T2 construct: expressed in transfected cells

[3] = biological target: T1, MOPr; assay type: cell-based; design: expressed in transfected cells; conditions: for internalisation signal in GRK2 positive cells: GRK2-YFP and β-arrestin 2-HA overexpressed
Description: Endocytosis assay: Receptor internalization was quantified using a ratiometric staining of membrane and internalized receptors. […] Cells were then incubated for an additional 30 min with indicated agonist at 37° C. To unbind the M1 anti-FLAG antibody from the surface receptors, cells were quickly washed three times with ice-cold PBS lacking Mg^2+ and Ca^2+ and supplemented with 0.04% EDTA (pH 7.4).
Only YFP positive cells were analyzed for internalization.
See also FIGS. 11C and 11D.

[4] = biological target: human µ-opioid receptor (hMOPr), human recombinant MOPr expressed in HEK-293 cells (human) (UniProt P35372); assay: cell-based or functional assay
[5] = biological target: T3, MOPr (Rattus norvegicus, UniProt P33535); assay: Patch-clamp recordings of GIRK currents in rat locus coeruleus (LC) neurons; assay type: cell-based
T3 construct: which natively express MOPr but not DOPr or KOPr; from tissue; host or cells: brain slices with locus coeruleus neurons, male Sprague Dawley rats
Description: Briefly, rats were anesthetized with isoflurane and decapitated. The brain was dissected and mounted in a vibratome chamber (Leica biosystem, VT100, Wetzlar, Germany) in order to prepare horizontal brain slices (280 μm). […] Slices were incubated in warm oxygenated ACSF for at least 30 min before recording. Slices were transferred to the recording chamber while warm ACSF (34° C.) was superfused at a rate of ˜2 mL/min. Whole-cell voltage-clamp recordings were acquired from LC neurons with Multiclamp 700B amplifier (Molecular Devices, CA, USA) at holding potential of −60 mV. […] Continuous current recordings were collected in chart mode at 500 Hz and filtered at 20-50 Hz using Axograph X (Axograph Scientific, Sydney, Australia). Series resistance monitored throughout the experiments and remained <15 MΩ; otherwise the data were discarded. Outward current was measured as the difference between baseline current and peak current of drug application.

[6] = biological target: MOPr C-terminally tagged with Rluc8 (MOPr-RLuc8), transfected in AtT20 cells; assay: cell-based or functional assay
[7] = biological target: FLAG tagged mouse MOPr (mMOPr) stably expressed in AtT20 cells (mouse) (UniProt P42866); assay: cell-based or functional assay
[8] = biological target: T1, MOPr; assay: GIRK conductance in MOPr expressing AtT20 cells without fractional inactivation of MOPr; assay type: cell-based; design: expressed in transfected cells
Description: The recording electrodes were first front filled with this internal solution and then backfilled with the same solution containing 200 μg/ml amphotericin B (in 0.8% DMSO). […] Liquid junction potential was calculated to be +16 mV and was adjusted before the start of each recording. […] Currents were sampled at 100 Hz, low pass filtered at 50 Hz and recorded on hard disk for later analyses. IGIRK was recorded using a 200 ms voltage step to −120 mV from a holding potential of −60 mV delivered every 2 s. Drugs were perfused directly onto cells using a ValveLink 8.2 pressurized pinch valve perfusion system (AutoMate Scientific, USA).

[9] = tested on: C57BL/6 mice; assay: Nociception (analgesia) testing on 54 C hotplate; assay type: in vivo, mouse; conditions: for analgesic activity after systemic administration: 54° C. hotplate
Description: Experiments were performed under the guidelines of the Australian code of practice for the care and use of animals for scientific purposes (National Health and Medical Research Council, Australia, 7th Edition). Great care was taken to minimise animal suffering during these experiments and to reduce the number of animals used. […] Food and water was available ad libitum. Mice were given at least 7 days to habituate to housing facilities prior to handling, and handled by the experimenter for 4 days prior to testing. […] The experimenter was blind to all drugs tested. Animals were tested on a 54° C. hotplate, with a maximum cut-off time of 20 seconds to prevent tissue damage. Endpoints were hindpaw lick, hindpaw flutter or jump. […] The percentage of maximal possible effects (% MPE) were calculated as follows: % MPE=(test latency−baseline latency)/(cutoff latency−baseline latency)×100%. The cut-off latency was 20 seconds. Significant differences were assessed with a two-way ANOVA and Tukey's post hoc multiple comparisons test. […] Doses were transformed to the logarithm of μmol/kg. A two-way ANOVA was used to compare data at equimolar doses.

[10] = biological target: T1, MOPr; assay type: cell-based; design: expressed in transfected cells; host or cells: AtT20 cells, transient co-transfection
Description: Arrestin recruitment: Agonist-induced recruitment of β-arrestin2 to MOPr was examined using a BRET-based approach. AtT20 cells were plated in 10-cm dishes and co-transfected with MOPr C-terminally tagged with Rluc8 (MOPr-RLuc8), β-arrestin2-YFP and GRK2 (1 μg, 4 μg and 2 μg, respectively). 24 h after transfection wells were replated into white opaque 96-well plates (CulturPlate, PerkinElmer) and allowed to adhere overnight. Cells were washed with Hank's Balanced Salt Solution (HBSS) and equilibrated in HBSS for 30 min at 37° C. prior to the experiment. Coelenterazine h was added to a final concentration of 5 μM 10 min before dual fluorescence/luminescence measurement in a LUMIstar Omega plate reader (BMG LabTech). Baseline BRET was measured for 30 sec prior to addition of the indicated ligand. The BRET signal was calculated as the ratio of light emitted at 530 nm by YFP over the light emitted at 430 nm by Renilla luciferase 8 (RLuc8).

[11] = biological target: T4, human µ-opioid receptor (hMOPr), human recombinant MOPr expressed in HEK-293 cells (human, UniProt P35372 1-400); assay: competition with [3H]DAMGO (0.5 nM), membranes with human recombinant MOPr (HEK-293), filtration and scintillation counting
T4 construct: whole, on cells; the cAMP assay used whole HEK cells expressing hMOPr
Description: (§1) The specific ligand binding to the receptors is defined as the difference between the total binding and the nonspecific binding determined in the presence of an excess of an unlabelled opioid ligand (naloxone, 10 μM). The results are expressed as a percent of control specific binding ((measured specific binding/control specific binding)×100) obtained in the presence of unlabelled peptides of interest. The IC₅₀ values (concentration causing a half-maximal inhibition of control specific binding) and Hill coefficients (nH) were determined by non-linear regression analysis of the competition curves generated with mean replicate values using Hill equation curve fitting (Y=D+[(A−D)/(1+(C/C₅₀nH)], where Y=specific binding, D=minimum specific binding, A=maximum specific binding, C=compound concentration, C₅₀=IC₅₀, and nH=slope factor).

[12] = biological target: T4, human µ-opioid receptor (hMOPr), human …; assay: cell-based or functional assay
[13] = biological target: T4, human µ-opioid receptor (hMOPr), human …; assay: competition with [3H]DAMGO at hMOPr
Description: as §1

[14] = biological target: MOPr natively expressed by rat locus coeruleus (LC) neurons (rat, UniProt P33535 1-398); assay: cell-based or functional assay
Chain of MOPr natively expressed by rat locus coeruleus (LC) neurons (P33535 whole entry): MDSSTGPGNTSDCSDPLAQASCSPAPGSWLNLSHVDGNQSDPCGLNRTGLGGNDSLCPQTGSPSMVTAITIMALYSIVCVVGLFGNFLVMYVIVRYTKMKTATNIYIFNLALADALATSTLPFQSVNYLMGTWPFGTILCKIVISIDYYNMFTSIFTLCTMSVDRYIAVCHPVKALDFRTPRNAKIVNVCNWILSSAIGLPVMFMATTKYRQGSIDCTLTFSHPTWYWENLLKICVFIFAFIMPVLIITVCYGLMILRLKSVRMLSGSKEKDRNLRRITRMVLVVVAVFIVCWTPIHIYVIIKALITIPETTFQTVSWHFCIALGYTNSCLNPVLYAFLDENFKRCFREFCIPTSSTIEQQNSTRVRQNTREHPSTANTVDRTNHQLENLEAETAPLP

T1 sequence (P42866 whole entry): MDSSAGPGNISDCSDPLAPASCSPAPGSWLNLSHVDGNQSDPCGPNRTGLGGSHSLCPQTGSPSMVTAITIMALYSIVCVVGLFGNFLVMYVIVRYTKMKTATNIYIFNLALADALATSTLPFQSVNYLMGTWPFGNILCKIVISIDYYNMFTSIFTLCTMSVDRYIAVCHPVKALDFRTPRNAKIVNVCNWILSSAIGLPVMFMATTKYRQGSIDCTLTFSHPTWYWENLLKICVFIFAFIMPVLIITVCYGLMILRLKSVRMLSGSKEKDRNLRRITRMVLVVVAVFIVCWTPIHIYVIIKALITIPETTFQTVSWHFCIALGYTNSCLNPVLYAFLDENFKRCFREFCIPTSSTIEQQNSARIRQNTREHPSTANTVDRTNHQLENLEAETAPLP
Chain of FLAG tagged mouse MOPr (mMOPr) stably expressed in AtT20 cells (mouse) (P42866 whole entry): as above
T2 sequence (P42866 whole entry): as above
T4 sequence (P35372 whole entry): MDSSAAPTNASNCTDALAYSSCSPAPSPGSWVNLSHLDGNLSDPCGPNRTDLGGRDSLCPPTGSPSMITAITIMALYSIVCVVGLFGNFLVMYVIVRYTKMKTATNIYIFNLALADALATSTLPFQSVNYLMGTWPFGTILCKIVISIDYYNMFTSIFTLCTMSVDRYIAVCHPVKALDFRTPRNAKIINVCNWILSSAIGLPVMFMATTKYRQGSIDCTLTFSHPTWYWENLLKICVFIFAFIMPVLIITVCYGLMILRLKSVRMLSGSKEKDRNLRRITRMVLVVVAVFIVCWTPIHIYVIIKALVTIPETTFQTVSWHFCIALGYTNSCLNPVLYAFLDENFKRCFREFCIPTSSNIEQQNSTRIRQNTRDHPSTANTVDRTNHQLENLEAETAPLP
Chain of human µ-opioid receptor (hMOPr), human recombinant MOPr expressed in HEK-293 cells (human) (P35372 whole entry): as above
T3 sequence (P33535 whole entry): as the sequence (P33535 whole entry) above

COc1ccsc1CNCC[C@@]1(c2ccccn2)CCOC2(CCCC2)C1 [oliceridine]
Internalisation Emax [1]: No activity | GGIRK maximal response / intrinsic efficacy [2]: significantly less efficaciously than either morphine or bilorphin | GIRK (80% knockdown) Emax ([2]; AtT20 mMOPr cells after β-CNA, relative to somatostatin): 0.33 ± 0.01 | GIRK (80% knockdown) log(tau/KA) ([2]; operational model fit): 7.2 ± 0.08 | internalisation signal in GRK2 positive cells [3]: clear internalisation signals

DAMGO ([D-Ala^2, N-MePhe^4, Gly^5-ol]-enkephalin) (peptide)
% inhibition of forskolin-stimulate cAMP formation in hMOPr HEK cells (10 um) [4]: 94%

CC(=O)N[C@@H](Cc1ccc(O)cc1)C(=O)N[C@@H](C(=O)N[C@H](C(=O)N[C@H](Cc1ccccc1)C(N)=O)C(C)C)C(C)C [3d, Aε-YvVf-NH2]
activity in LC neurons ([5]; 10-30 μM): inactive

endomorphin-2 (peptide)
β-arrestin 2 recruitment (BRET): Emax [6]: 100 | β-arrestin 2 recruitment (BRET): log(EC50) [6]: -7 | β-arrestin 2 recruitment (BRET): log(tau/KA) [6]: 7 | GIRK (80% knockdown): Emax [7]: 0.64 | GIRK (80% knockdown): log(EC50) [7]: -6.9 | GIRK (80% knockdown): log(tau/KA) [7]: 7.5 | Internalisation of MOPr: Emax [7]: 94% | Internalisation of MOPr: log(EC50) [7]: -6.4 | Internalisation of MOPr: log(tau/KA) [7]: 6.2 | Phosphorylation (Ser375 of MOPr): Emax [7]: 98% | Phosphorylation (Ser375 of MOPr): log(EC50) [7]: -7.2 | Phosphorylation (Ser375 of MOPr): log(tau/KA) [7]: 7.2

Cc1cc(O)cc(C)c1C[C@H](N)C(=O)N[C@@H](C(=O)N[C@H](C(=O)N[C@H](Cc1ccccc1)C(N)=O)C(C)C)C(C)C [peptide 3c, 2,6-dimethyl-L-tyrosine-D-Val-L-Val-D-Phe-NH2]
agonist action in AtT20 cells [8]: potent partial opioid agonist | agonist action on GIRK current in LC neurons ([5]; compared with morphine): agonist with potency greater than morphine | internalisation signal in GRK2 positive cells [3]: clear internalisation signals | peak effect after intrathecal injection ([9]; hotplate, 5 nmol/mouse intrathecal): 41±9 % MPE | nociception in the hotplate test, intravenous ([9]; i.v. 50 mg/kg, versus vehicle): failed to inhibit nociception | nociception in the hotplate test, subcutaneous ([9]; s.c. 100 mg/kg, versus vehicle): failed to inhibit nociception

H-FVVF-NH2 (peptide)
% inhibition of forskolin-stimulate cAMP formation in hMOPr HEK cells (10 um) [4]: 19%

2,6-dimethyl-L-tyrosine-D-Val-L-Val-D-Phe-L-Ser(β-Lac)-NH2 ([Dmt][dV]V[dF]S(β‑Lac)-NH2; N-terminus assumed; SMILES Cc1cc(O)cc(C)c1C[C@H](N)C(=O)N[C@@H](C(=O)N[C@H](C(=O)N[C@H](Cc1ccccc1)C(=O)N[C@@H](CO[C@@H]1O[C@H](CO)[C@@H](O[C@@H]2O[C@H](CO)[C@H](O)[C@H](O)[C@H]2O)[C@H](O)[C@H]1O)C(N)=O)C(C)C)C(C)C) [peptide 3g]
β-arrestin recruitment compared to bilorphin [10]: modest | agonist action in AtT20 cells [8]: potent partial opioid agonist | potency compared with bilorphin in AtT20 cells [8]: small loss of potency | internalization compared to bilorphin ([3]; 30 μM, after GRK2 overexpression): modest | analgesic activity after systemic administration ([9]; s.c., listed as Bilactorphin): dose-dependent analgesia; also recorded: equipotent with morphine | analgesic activity after systemic administration ([9]; s.c., listed as bilactorphin): potent analgesic | peak effect after i.v ([9]; hotplate, i.v): 88.9±11.8 % MPE | activity after oral administration ([9]; hotplate, oral gavage): active | ED50, hotplate, systemic administration s.c. ([9]; s.c.): 34 µmol/kg

FVVF (D-Val at 2; D-Phe at 4; C-terminal amide, also called 1e; peptide 1e) [H-FvVf-NH2 (L-Phe-D-Val-L-Val-D-Phe-NH2)]
Ki [11]: 750 nM | % inhibition of forskolin-stimulate cAMP formation in hMOPr HEK cells (10 um) [12]: 47% | fold improvement of affinity over Bilaid A (1a) [13]: 4 fold

YVVF (D-Val at 2; D-Phe at 4; C-terminal amide, also called 3b; peptide 3b) [H-YvVf-NH2 (L-Tyr-D-Val-L-Val-D-Phe-NH2)]
Ki [11]: 93 nM | fold increase of affinity over Bilaid C (3a) [13]: 2 fold

H-YVVF-OH [H-YVVF-OH]
Agonist potency in LC neurons EC50 [14]: > 10000 nM

Ac-Y[dV]V[dF]-NH2 [Ac-YvVf-NH2]
Agonist potency in LC neurons EC50 [14]: > 10000 nM

B1: H-FvGy-NH2 (L-Phe-D-Val-Gly-D-Tyr-NH2) (peptide)
peptide: H-F[dV]G[dY]-NH2
SMILES: CC(C)[C@@H](NC(=O)[C@@H](N)Cc1ccccc1)C(=O)NCC(=O)N[C@H](Cc1ccc(O)cc1)C(N)=O
notes: also called 2d; peptide 2d
Ki [11]: 1600 nM | % inhibition of forskolin-stimulate cAMP formation in hMOPr HEK cells (10 um) [12]: 31%

H-YVVF-NH2 [H-YVVF-NH2]
Agonist potency in LC neurons EC50 [14]: > 10000 nM
